Data from patent US20210244762A1 (AUTOLUS, published 2021).

Target: T1, Recombinant TGFbRII-Fc protein (R&D systems) (human, UniProt P37173 23-159)
T1 construct: Bought reagent; also called TGFβRII-Fc; TGFβRII-human Fc; not shown: Fc part; human Fc by the names 'TGFβRII-human Fc' / 'TGFbRII-hFc' and the anti-human capture kit; isotype and limits not
Assay: SPR (Biacore 8K), TGFbRII-Fc captured by anti-human capture kit on CM5, VHH as analyte, 1:1 Langmuir fit, 25 °C
Description: The binding kinetics of these four dAbs for TGFβRII was then investigated using Biacore affinity analysis and the results are shown in Table 3 below.
Recombinant TGFbRII-Fc protein (R&D systems) was immobilised on individual flow cells on a Series S CM5 sensor chip (GE Healthcare) previously functionalised with anti-human capture kit, to a density of 150-200 RU using a Biacore 8K instrument. HBS-P⁺ buffer was used as running buffer is all experimental conditions. Recombinant purified VHH antibodies at known concentrations were used as the ‘analyte’ and injected over the respective flow cells with 150 s contact time and 600s dissociation at […] of flow rate with a constant temperature of 25° C. In each experiment, flow cell 1 was unmodified and used for reference subtraction. A ‘0 concentration’ sensorgram of buffer alone was used as a double reference subtraction to factor for drift. Data were fit to a 1:1 Langmuir binding model using local Rmax.

T1 sequence (P37173 23-159 limits assumed): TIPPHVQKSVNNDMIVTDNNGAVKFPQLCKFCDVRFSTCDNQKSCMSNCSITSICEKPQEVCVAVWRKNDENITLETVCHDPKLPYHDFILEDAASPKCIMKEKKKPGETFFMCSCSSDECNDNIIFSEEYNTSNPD

B1: anti-TGFβRII single domain antibody (dAb) clone H3 (VHH)
VHH: QVQLQQSGGGLVQAGGSLRLACAASGRSFSIYGITWFRQAPGKEREFVAAITGSGLTTNYADSVKGRFTISRDNAKNMVYLQLNSLKPDDTAVYYCAATRAYSGYYGENPTRYAYWGQGTQVTVS
notes: H3 is the one clone not 'related' to the other three; also called dAb H3; anti-TGFbRII VHH H3
  Kd: 67.2 nM
  koff: 0.119 s⁻¹
  kon: 1.77e+06 M⁻¹ s⁻¹
